Measurements from article PMC3199254.

Substrate: O=P(O)(O)O
Test: cells, lysate or membranes
Conditions: intact delta-Pst1 cells grown 24 h in Pi-limiting BG-11; room temperature; transport Km

B1: Pst2 (Synechocystis sp. PCC 6803 substr. Kazusa) (protein)
chain: GTLNGAGASFPAPLYQRYFAEYKKATGNTVNYNSVGSGAGIRQFIGETVDFGATDAVPTSAQRQQMKRGVVMVPTAGGAVAVVYNLPGKKVQLSRIALGKIFTGELKTWNQVDSKLPNTPIRVVVRADGSGTTDIFTSHLSAISSTFRSKIGASQDPNWGFQVLKGPKNDGVAATVKQTPGAIGYVQDTFARRNEGPNLQTAKVQNKAGQYVEPSLAEANKAISGAKFDANFVAEISDPASGYPIVGLTWLLVYQNNKNANVAKDVKALVRWILTTGQNHNTQLEYTKIPPAVAQRVIAAVNKIK
Km: 0.13 µM
